Experimental data reported in patent EP4631974A1.
Where two headings read alike, the source gives them in different places.

Tests used:
[1] = biological target: RSV A2 pre-F protein (respiratory syncytial virus (RSV) A2) (UniProt P03420); experiment: ELISA, plate-coated RSV A2 pre-F, anti-human IgG Fc-HRP detection
[2] = biological target: RSV A2 pre-F protein (respiratory syncytial virus (RSV) A2) (UniProt P03420); experiment: BLI (Octet R8), RSV A2 pre-F captured on HIS1K sensor, antibody in solution
[3] = biological target: RSV A2 pre-F protein (respiratory syncytial virus (RSV) A2) (UniProt P03420); experiment: ELISA, plate-coated RSV A2 pre-F, anti-human IgG Fc-HRP detection (2-fold dilutions from 1 ug/mL)
[4] = biological target: RSV A2 pre-F protein (respiratory syncytial virus (RSV) A2) (UniProt P03420); experiment: BLI (Octet R8), RSV A2 pre-F captured on HIS1K sensor, antibody in solution; remark: listed apart in the source

MEDI8897 (antibody)
EC50 [1]: 0.0313 µg/mL | Kd [2]: 0.122 nM | EC50 [3]: 0.0146 µg/mL | Kd [4]: 0.379 nM
